Experimental data from patent US20030096355A1 (published 2003).

Experiments:
active murine TRAIL = target: T1, active murine TRAIL (murine, UniProt P50592 99-291); test: SPR, Biacore 2000, 25° C; ymkz5-receptor amine-coupled on CM5 chip, ligand injected at 2 nM to 100 nM; receptor on the chip; active (bioactive) murine TRAIL as ligand
T1 construct: The result is told only for 'active murine TRAIL which was bioactive in cell culture assays'; The construct (flag-tagged 99-291 or Fc fusion) is not tied to the KD; also called murine flag TRAIL; murine Fc TRAIL
T1 sequence (looked up): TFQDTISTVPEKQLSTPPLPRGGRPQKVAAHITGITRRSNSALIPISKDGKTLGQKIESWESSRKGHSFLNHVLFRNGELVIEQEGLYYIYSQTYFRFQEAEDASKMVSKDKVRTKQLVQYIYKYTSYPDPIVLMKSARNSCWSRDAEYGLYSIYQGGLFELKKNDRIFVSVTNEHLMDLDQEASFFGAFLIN
Protocol: (§1) Binding studies were performed to determine if various TNF ligand family members are ligands for the ymkz5-receptor. The only TNF ligand which bound to the ymkz5-receptor was murine TRAIL. The binding studies, based on surface plasmon resonance, were carried out with the automated, high throughput Biacore 2000 system at 25° C. according to the manufacturer's instructions (Biacore, Uppsula, Sweden) as follows:
The receptor was immobilized on a CM5 research grade amine coupling chip (Biacore) by placing 40 μg/ml of recombinant ymkz5-receptor diluted in HEPES buffered saline (HBS-P; Biacore) at pH 4.5 on the chip. The ligands were diluted in HSP-B buffer containing 10 μg/ml BSA and 4 mg/ml dextran to block nonspecific binding sites. […]
The TNF ligands tested were: human flag TRAIL (amino acids 95-281, Genbank accession no. AAC50332), murine flag TRAIL (amino acids 99-291, Genbank accession no. NP 033451), murine Fc TRAIL, human OPGL ligand (amino acids 159-318), murine OPGL ligand (amino acids 159-316), human TNFα (amino acids 82-233, Genbank accession no. CAA26669), and murine TNFα (amino acids 82-233, Genbank accession no. CAA68530). […] Results of the assay were determined by detecting the change in mass on the chip as measured by changes in […] on the chip as indicated as resonance units.

[1] = target: T2, murine TNFα (amino acids 82-233, Genbank accession no. CAA68530) (murine, UniProt P06804 82-233); test: SPR, Biacore 2000, 25° C; ymkz5-receptor immobilized on CM5 chip, ligand injected
T2 construct: range 82-233; Expressed in E. coli
T2 sequence (looked up): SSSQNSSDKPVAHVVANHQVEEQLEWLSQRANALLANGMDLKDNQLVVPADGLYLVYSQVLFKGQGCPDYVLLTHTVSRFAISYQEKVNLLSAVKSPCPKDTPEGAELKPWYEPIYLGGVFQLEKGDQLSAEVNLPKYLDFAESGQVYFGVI
Protocol: as §1
(§2) The receptor was immobilized on a CM5 research grade amine coupling chip (Biacore) by placing 40 μg/ml of recombinant ymkz5-receptor diluted in HEPES buffered saline (HBS-P; Biacore) at pH 4.5 on the chip. The ligands were diluted in HSP-B buffer containing 10 μg/ml BSA and 4 mg/ml dextran to block nonspecific binding sites. The ligand samples were injected over the receptors at concentrations ranging from 2 nM to 100 nM. The chips were regenerated between ligand injections by washing 2 times for 3 minutes in 25 mM CAPS, 1 M NaCl pH 10.5.
(§3) The TNF ligands tested were: human flag TRAIL (amino acids 95-281, Genbank accession no. AAC50332), murine flag TRAIL (amino acids 99-291, Genbank accession no. NP 033451), murine Fc TRAIL, human OPGL ligand (amino acids 159-318), murine OPGL ligand (amino acids 159-316), human TNFα (amino acids 82-233, Genbank accession no. CAA26669), and murine TNFα (amino acids 82-233, Genbank accession no. CAA68530). The extracellular and […] portions of the ligands were recombinantly expressed in E.coli. Specifically, the denoted amino acids for each ligand indicate the portion of the ligand expressed recombinantly. Additionally, commercially available human Fas ligand (Alexis Biochemicals, San Diego, Calif.) was also tested.. Human DR5Fc, a known TRAIL receptor, was used as a control. Results of the assay were determined by detecting the change in mass on the chip as measured by changes in […] on the chip as indicated as resonance units.

[2] = target: T3, human OPGL ligand (amino acids 159-318) (human, UniProt O14788 159-317); test: as above
T3 construct: range 159-318; Expressed in E. coli; The printed range may run past the end of the UniProt entry
T3 sequence (looked up): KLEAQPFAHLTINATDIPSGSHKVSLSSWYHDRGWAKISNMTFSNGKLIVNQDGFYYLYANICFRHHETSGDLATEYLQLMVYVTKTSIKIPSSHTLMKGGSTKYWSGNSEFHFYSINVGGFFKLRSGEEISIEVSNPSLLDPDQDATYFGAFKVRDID
Protocol: as §1, §2, §3

[3] = target: T4, human TNFα (amino acids 82-233, Genbank accession no. CAA26669) (human, UniProt P01375 82-233); test: as above
T4 construct: range 82-233; Expressed in E. coli
Protocol: as §1, §2, §3

[4] = target: T5, human Fas ligand (Alexis Biochemicals) (human, UniProt P48023 103-281, limits assumed); test: as above
T5 construct: Bought; construct not described
T5 sequence (looked up): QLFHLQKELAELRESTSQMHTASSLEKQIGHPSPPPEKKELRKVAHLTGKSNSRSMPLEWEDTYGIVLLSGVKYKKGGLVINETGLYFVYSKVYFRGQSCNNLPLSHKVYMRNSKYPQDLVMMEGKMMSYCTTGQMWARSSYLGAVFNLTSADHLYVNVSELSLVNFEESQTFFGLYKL
Protocol: as §1, §2, §3

[5] = target: T6, human flag TRAIL (amino acids 95-281, Genbank accession no. AAC50332) (human, UniProt P50591 95-281); test: as above
T6 construct: range 95-281; Expressed in E. coli; not shown: flag tag
Protocol: as §1, §2, §3

[6] = target: T7, murine OPGL ligand (amino acids 159-316) (murine, UniProt O35235 159-316); test: as above
T7 construct: range 159-316; Expressed in E. coli
T7 sequence (looked up): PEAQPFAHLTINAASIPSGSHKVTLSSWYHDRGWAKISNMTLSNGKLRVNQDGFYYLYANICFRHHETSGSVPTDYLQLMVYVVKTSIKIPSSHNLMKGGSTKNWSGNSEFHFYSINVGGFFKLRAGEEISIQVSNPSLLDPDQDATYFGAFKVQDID
Protocol: as §1, §2, §3

T4 sequence (P01375 82-233 limits assumed): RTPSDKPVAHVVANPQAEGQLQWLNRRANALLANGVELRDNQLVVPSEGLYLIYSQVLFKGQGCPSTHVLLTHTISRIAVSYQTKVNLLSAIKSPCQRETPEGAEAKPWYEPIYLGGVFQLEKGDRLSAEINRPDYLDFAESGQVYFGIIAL
T6 sequence (P50591 95-281 limits assumed): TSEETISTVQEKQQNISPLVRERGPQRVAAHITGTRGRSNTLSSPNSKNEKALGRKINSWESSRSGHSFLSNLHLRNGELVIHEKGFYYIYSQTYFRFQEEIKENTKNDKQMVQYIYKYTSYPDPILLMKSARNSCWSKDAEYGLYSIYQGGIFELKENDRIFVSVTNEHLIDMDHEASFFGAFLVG

Kd (active murine TRAIL): 20.8 nM
binding result [1]: no binding
binding result [2]: no binding
binding result [3]: no binding
binding result [4]: no binding
binding result [5]: no binding
binding result [6]: no binding
B1: recombinant ymkz5-receptor (receptor)
chain: MPESYSFNCPDGEYQSNDVCCKTCPSGTFVKAPCKIPHTQGQCEKCHPGTFTGKDNGLHDCELCSTCDKDQNMVADCSATSDRKCECQIGLYYYDPKFPESCRPCTKCPQGIPVLQECNSTANTVC
